Test results taken from patent US20240294668A1 (SHANGHAI SYNVIDA BIOTECHNOLOGY, published 2024).

What was measured:
[1] = target: T1, human FIXa (activated coagulation factor IX) (human, UniProt P00740 47-191; P00740 227-461); assay: cell-based or functional assay
[2] = target: T1, human FIXa (activated coagulation …); assay: ELISA, FIXa antigen coated on the plate, anti-mouse secondary antibody, OD450
Experimental: After culturing hybridoma cells for 7 days, ELISA was used for detecting positive antibodies. 0.1 μg/100 μl of FIXa antigen was coated on an ELISA plate (CORNING), incubated at 37° C. for 1.5 h; then blocked with 2% BSA at 37° C. for 1 h; and then primary antibody, the supernatant of cultured cells, was added and incubated at 37° C. for 1.5 h. After that, mouse secondary antibody was added and incubated at 37° C. for 30 min. Finally, chromogenic substrate TMB (Thermo) was added for 5 min at room temperature in dark, then stop solution 2M H₂SO₄ was added to terminate the reaction. Antibody-positive cell lines were screened according to the absorbance value measured at 450 nm by a spectrophotometer (Thermo Fisher scientific company). Then the cell lines were cultured for cloning in a semi-solid medium ([…] company), with single clones selected into 96-well plates after 7 days. […]
Following the instructions provided in the Sigma company's subtype detection kit, the antigen was coated, blocked, incubated with primary antibody (0.1 μg/100 μl), incubated with isotype-specific reagent at room temperature for 30 minutes, incubated with secondary antibody (R-antiGoat-HRP) for chromogen development, with stop solution added to terminate the reaction, and finally the absorbance was measured at 450 nm. […]

T1 sequence (P00740 47-191 limits assumed, chain 1 of 2): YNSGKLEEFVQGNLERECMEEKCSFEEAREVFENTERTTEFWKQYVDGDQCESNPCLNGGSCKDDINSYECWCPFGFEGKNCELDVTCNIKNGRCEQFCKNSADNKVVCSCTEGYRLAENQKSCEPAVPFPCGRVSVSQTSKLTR
T1 sequence (P00740 227-461 limits assumed, chain 2 of 2): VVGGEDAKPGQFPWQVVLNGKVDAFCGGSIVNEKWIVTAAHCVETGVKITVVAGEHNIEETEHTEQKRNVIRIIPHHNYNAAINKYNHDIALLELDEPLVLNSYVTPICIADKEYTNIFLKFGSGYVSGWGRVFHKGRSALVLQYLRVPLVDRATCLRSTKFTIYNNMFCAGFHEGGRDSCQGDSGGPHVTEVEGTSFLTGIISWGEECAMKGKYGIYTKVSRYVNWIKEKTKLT

activated partial thromboplastin time (APTT), IC50 [1]: 7.71 µg/mL | activated partial thromboplastin time (APTT), fold over control [1]: 3.5 times | EC50 [2]: 0.0947 µg/mL
B1: FIXa-4 antibody (antibody, V domains shown)
VH: QVTLKESGPGILKPSQTLSLTCSFSGFSLNTPGMGVGWIRQPSGKGLEWLAHIWWDDDKYYNPSLKSQLTISKDTSRNQVFLKITSVDTADTATYYCARSDDVSYALDYWGQGTSVTVSS
VL: DIQMTQSPASLSASVGETVTITCRASENIDSYLAWYQQKQGKSPQLLVYNAKTLADGVPSRFSGSGSGTQFSLKIDSLQPEDFGSHYCQHHDGTTWTFGGGTKLEIK
notes: A subtype test is described, but the isotype and constant regions are not reported; also called anti-FIXa monoclonal antibody; FIX-4 antibody
